The assay concerns the target T1, HER2 on SK-BR-3 human breast cancer cells (human, UniProt P04626 23-1255).
T1 construct: whole, on cells; also called SK-BR-3 cells; whole cell (SK-BR-3)
Nature of the assay: flow cytometry on SK-BR-3 cells, human IgG1, anti-human IgG-FITC detection. The protocol:
Following washes in PBS containing 1% BSA, secondary antibody anti-human IgG-FITC (Sigma) was added for 30 min on ice. Fluorescence intensity of the live cell population was recorded using FACSCalibur (BD Biosciences) and analyzed using FlowJo 7.6.5 software (Tree Star).
In general terms: A flow cytometer gives signals particle by particle.

B1: 4D5 as human IgG1, VH 30D (30D/WT) (antibody, V domains shown)
VH: QVQLVESGGGLVQPGGSLRLSCAASGFNIDDTYIHWVRQAPGKGLEWVARIYPTNGYTRYADSVKGRFTISADTSKNTAYLQMNSLRAEDTAVYYCSRWGGDGFYAMDVWGQGTLVTVSS
VL: not shown
Regarding B1, the EC50 (as a rule, the concentration needed to bring the measured effect to its halfway point) is 0.827 µg/mL.

B2: 4D5 as human IgG1, VH 30D and VL 52D (30D/52D) (antibody, V domains shown)
VH: QVQLVESGGGLVQPGGSLRLSCAASGFNIDDTYIHWVRQAPGKGLEWVARIYPTNGYTRYADSVKGRFTISADTSKNTAYLQMNSLRAEDTAVYYCSRWGGDGFYAMDVWGQGTLVTVSS
VL: QIQMTQSPSSLSASVGDRVTITCRASQDVNTAVAWYQQKPGKAPKLLIYSADFLESGVPSRFSGSRSGTDFTLTISSLQPEDFATYYCQQHYTTPPTFGQGTKVEIK
Molecule B2 displayed an EC50 of 0.978 µg/mL.

For the origin of these results see US20170240619A1 (GARVAN INSTITUTE OF MEDICAL RESEARCH, published 2017).
